From publication PMC8190095, “Structural basis for inhibition of the AAA-ATPase Drg1 by diazaborine” (Nature Communications, 2021) come the findings set out here.

Data set [1] addresses T1, GST-Rlp24C fragment (C-terminal fragment of the substrate protein Rlp24) (yeast, UniProt Q07915 147-199).
T1 construct: Rlp24, shuttling ribosome maturation factor of yeast, C-terminal fragment Rlp24C; The GST fusion was immobilised in SPR; also called Rlp24C-domain; source: purified
T1 sequence (looked up): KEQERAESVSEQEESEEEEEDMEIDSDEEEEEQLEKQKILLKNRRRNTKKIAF
The data set can be described thus: SPR; Biacore X100; 200 RU GST-Rlp24C amine-coupled on a CM5 chip, GST alone in the reference cell; 2 µM Drg1 with 1 mM ATPγS injected with or without 200 µg/ml diazaborine; 120 s association, 180 s dissociation; 20 mM HEPES-KOH, 150 mM KOAc, 5 mM Mg(OAc)2, 0.1% Tween-20, 1 mM DTT, pH 6.8; half-life from one-phase exponential decay. To be noted: both partners purified. For orientation: In SPR one partner is held on a chip, and binding of the other changes the refractive index at the surface.

Data set [2] concerns the molecule itself. The data set can be described thus: cryo-EM structure; single-particle cryo-EM of full-length wild-type Drg1, 1.75 mg/ml, with 2 mM ATPγS and 200 µg/ml (740 µM) thieno-diazaborine 2b18; 20 mM HEPES-KOH, 150 mM KOAc, 5 mM Mg(OAc)2, 0.005% Tween-20, 1 mM DTT, pH 7.6; no symmetry imposed.

B1: Drg1 (AAA-ATPase), full-length wild type (enzyme, yeast, UniProt P32794 1-780, looked up)
chain: MAPKSSSSGSKKKSSASSNSADAKASKFKLPAEFITRPHPSKDHGKETCTAYIHPNVLSSLEINPGSFCTVGKIGENGILVIARAGDEEVHPVNVITLSTTIRSVGNLILGDRLELKKAQVQPPYATKVTVGSLQGYNILECMEEKVIQKLLDDSGVIMPGMIFQNLKTKAGDESIDVVITDASDDSLPDVSQLDLNMDDMYGGLDNLFYLSPPFIFRKGSTHITFSKETQANRKYNLPEPLSYAAVGGLDKEIESLKSAIEIPLHQPTLFSSFGVSPPRGILLHGPPGTGKTMLLRVVANTSNAHVLTINGPSIVSKYLGETEAALRDIFNEARKYQPSIIFIDEIDSIAPNRANDDSGEVESRVVATLLTLMDGMGAAGKVVVIAATNRPNSVDPALRRPGRFDQEVEIGIPDVDARFDILTKQFSRMSSDRHVLDSEAIKYIASKTHGYVGADLTALCRESVMKTIQRGLGTDANIDKFSLKVTLKDVESAMVDIRPSAMREIFLEMPKVYWSDIGGQEELKTKMKEMIQLPLEASETFARLGISAPKGVLLYGPPGCSKTLTAKALATESGINFLAVKGPEIFNKYVGESERAIREIFRKARSAAPSIIFFDEIDALSPDRDGSSTSAANHVLTSLLNEIDGVEELKGVVIVAATNRPDEIDAALLRPGRLDRHIYVGPPDVNARLEILKKCTKKFNTEESGVDLHELADRTEGYSGAEVVLLCQEAGLAAIMEDLDVAKVELRHFEKAFKGIARGITPEMLSYYEEFALRSGSSS
notes: Drg1, hexameric type II AAA-ATPase of yeast (N-domain, D1 and D2 AAA-domains), full-length wild type; the atomic model covers amino acids 239-780 of each of the six monomers; Hexamer in the presence of nucleotide (ATPγS); also called Drg1 wild type; wild-type Drg1; source: overexpressed in yeast as GST-Drg1, purified (GSH-agarose, eluted by Prescission protease cleavage from the GST-tag)
As usually defined, the stoichiometry N is the number of molecules, sites or subunits per partner or assembly. For B1, the “fold slower dissociation with diazaborine against without” value in data set [1] amounted to 2 fold. Further, the “stoichiometry N” value in data set [2] worked out at 6.
